The data set can be described thus: soluble on expression in E. coli; label from the status in PepcDB or PDB records.
“MGSSHHHHHHGGTGENLYFQGGSGLRRTEIALKKGWTHNPGHTRRGGKNLAWRPKISDAKLSQFVPLALVHPRRHPNNWQERQFNALGYTKWPKDIGFYNAGDNFEVTPEAAWRLYVHARDEPYWGKLHCEKTIITLLPVVEKAPKENMERVLDVFRHYLKRYGADHYIYNAVMQAAAFAKNYEQAEQLFKEMETLGLEPNAQSYVNMMLAAKLCGLPPEKSEAYFKRAVKDGAMQSVMRMDTEFRMWMDQLDRLGSFTASSGYLSVNEEGAKPMPRDMWAIWGWHRSESKFISRRDLIMQQVRARVHSGKELVGTVYTKTRRQPWAKFNGMLRHDYNGPSYRAPTIFPDAPEYTNEAGHKAF”: the “soluble on expression in E. coli” value was “soluble”.

For “MGSSHHHHHHGGTGENLYFQGGSGNRIDISNFDFLYVIGKGTYGIVYKALDKKENNFVAIKKIINLCDENYGISKCILRELTILQKIKHKNIINLKYVFYGKDIEDKLKGENLENSCLYLAFEYCDIDLFNLIKKHNLNIKEIKYIIFELLLALSYFHSNNYIHRDIKPENIFITSEGEIKLGDLGMSVEKSDHMTPTVVTLWYRAPEILLKSTNYDQKVDIWSLGCLFMELIQGRPLFPGKNDCTQLELIYLLLGDKDKLTTVDKERKDMFPYFEINMLKDAIDDEHTLDLISKMLIYDPNYRISSKEALKHPCFQDIEQVKFSYNF”, the “soluble on expression in E. coli” value is recorded as “not soluble”.

Turning to “MGSSHHHHHHGKTIFVIVPTNEEQVAFLEALAKQDELNFDWQNPPTEPGQPVVILIPSDMVEWFLEMLKAKGIPFTVYVEEGGSENLYFQGGGGGGFYVRTPGKRLLEDKVGKDGLSHYSSEFSSRSSSAELKESRASKCSTTTKRSFAENAAGGTADSSKSHRSMPEVVSAQSQHSKTTGSHKRD”, the “soluble on expression in E. coli” value was “soluble”.

Turning to “MGSSHHHHHHHHDYDIPTTENLYFQGSELSSLTAVSPVDGRYGDKVSALRGIFSEYGLLKFRVQVEVRWLQKLAAHAAIKEVPAFAADAIGYLDAIVANFSEEDAARIKTIERTTNHDVKAVEYFLKEKVAEIPELHAVSEFIHFACTSEDINNLSHALMLKTARDEVILPYWRQLIDGIKDLAVQYRDIPLLSRTHGQPATPSTIGKEMANVAYRMERQYRQLNQVEILGKINGAVGNYNAHIAAYPEVDWHQFSEEFVTSLGIQWNPYTTQIEPHDYIAELFDCVARFNTILIDFDRDVWGYIALNHFKQKTIAGEIGSSTMPHKVNPIDFENSEGNLGLSNAVLQHLASKLPVSRWQRDLTDSTVLRNLGVGIGYALIAYQSTLKGVSKLEVNRDHLLDELDHNWEVLAEPIQTVMRRYGIEKPYEKLKELTRGKRVDAEGMKQFIDGLALPEEEKARLKAMTPANYIGRAITMVDELK”, the “soluble on expression in E. coli” value is listed as “soluble”.

Take “MGSSHHHHHHSSGLVPAGSHMASMTGGQQMGRGSMSLQVNLLNNTFANPFMNAAGVMCTTTEELVAMTESASGSLVSKSCTPALREGNPTPRYQALPLGSINSMGLPNNGFDFYLAYAAEQHDYGKKPLFLSMSGLSMRENVEMCKRLAAVATEKGVILELNLSCPNVPGKPQVAYDFDAMRQCLTAVSEVYPHSFGVKMPPYFDFAHFDAAAEILNEFPKVQFITCINSIGNGLVIDAETESVVIKPKQGFGGLGGRYVLPTALANINAFYRRCPGKLIFGCGGVYTGEDAFLHVLAGASMVQVGTALQEEGPSIFERLTSELLGVMAKKRYQTLDEFRGKVRTLDGTAESTR”: the “soluble on expression in E. coli” value is “soluble”.

In the case of “MGSSHHHHHHSSGLVPRGSHMAASTVAGELGLSITGLGVQYPPYSLGPDAIDILSKRYHPESPAMKKVLAINRYTGIDQRSSIGNPDHPLVNKPNPPTVKELHEVFMSDGVPLAVEASRKAMAEARLVPAQITHMVSTTCTDSANPGYDHYVAKELGLSDRLEKVLLHGIGCSGGLAALRTAANLCLGHTARGKPARILVLALEVSTTMVRSELESIDALQETRIGIALFSDCASAVILSNGIGEAPGKPAIYDLLGWENRVIPDSEHDLGFDVDPMGWKVVLSPRVPVLAKASLQPTYADLLSSLQDQLPSSYQKPADFDWAMHPGGATILSGAESAMGLTPEHMRASYDRYINHGNSSSATIFSVLNRLREKDMDALAPGGKVKEYVVGCAFGPGINVEMCMLKRRMNAPARTTTGLDTPPETDDSEGPGPGSSAGSDDGESIEGGEKEEKFINEALDNVELD”, the “soluble on expression in E. coli” value was “soluble”.

Regarding “MGSSHHHHHHSSGLVPRGSHMAPSRRERERERRREQIIRAAEKAFFARGYDRVTMDEIAEEAEVNKALLYYYFKNKESLFFAVNLYGVRILHSMYRRCLELDTDGYGKVRAMVEALYSFSKEHPDYFRIYCYSGTERFELSESEDAREIVDLRTGMWRLMVEAIMEGMNDGSIRSDLDPVELSIYIHTLAINALNLDFTSRMVLEARNISRDRFWEDLEVFLESALRP”, the “soluble on expression in E. coli” value is “soluble”.

For “MGSSHHHHHHSSGLVPRGSHMDAETVGRVKRFIQENVFVAANHNGSPLSIKEAPKELSFGARAELPRIHPVASKLLRLMQKKETNLCLSADVSLARELLQLADALGPSICMLKTHVDILNDFTLDVMKELITLAKCHEFLIFEDRKFADIGNTVKKQYEGGIFKIASWADLVNAHVVPGSGVVKGLQEVGLPLHRGCLLIAEMSSTGSLATGDYTRAAVRMAEEHSEFVVGFISGSRVSMKPEFLHLTPGVQLEAGGDNLGQQYNSPQEVIGKRGSDIIIVGRGIISAADRLEAAEMYRKAAWEAYLSRLGV”, the “soluble on expression in E. coli” value was “soluble”.

As to “MGSSHHHHHHSSGLVPRGSHMEHAFTPLEPLLPTGNLKYCLVVLNQPLDARFRHLWKKALLRACADGGANHLYDLTEGERESFLPEFVSGDFDSIRPEVKEYYTKKGCDLISTPDQDHTDFTKCLQVLQRKIEEKELQVDVIVTLGGLGGRFDQIMASVNTLFQATHITPVPIIIIQKDSLIYLLQPGKHRLHVDTGMEGSWCGLIPVGQPCNQVTTTGLKWNLTNDVLGFGTLVSTSNTYDGSGLVTVETDHPLLWTMAIKS”, the “soluble on expression in E. coli” value is reported as “soluble”.

For “MGSSHHHHHHSSGLVPRGSHMETADLKSLAKRIYEAYLKNFNMNKVKARVILSGKASNNPPFVIHDMETLCMAEKTLVAKLVANGIQNKEAEVRIFHCCQCTSVETVTELTEFAKAIPGFANLDLNDQVTLLKYGVYEAIFAMLSSVMNKDGMLVAYGNGFITREFLKSLRKPFCDIMEPKFDFAMKFNALELDDSDISLFVAAIICCGDRPGLLNVGHIEKMQEGIVHVLRLHLQSNHPDDIFLFPKLLQKMADLRQLVTEHAQLVQIIKKTESDAALHPLLQEIYRDMY”, the “soluble on expression in E. coli” value is “soluble”.

As for “MGSSHHHHHHSSGLVPRGSHMFKPKKKLGQCFLIDKNFVNKAVESANLTKDDVVLEIGLGKGILTEELAKNAKKVYVIEIDKSLEPYANKLKELYNNIEIIWGDALKVDLNKLDFNKVVANLPYQISSPITFKLIKRGFDLAVLMYQYEFAKRMVAAAGTKDYGRLSVAVQSRADVEIVAKVPPSAFYPKPKVYSAIVKIKPNKGKYHIENENFFDDFLRAIFQHRNKSVRKALIDSSKELNYNKDEMKKILEDFLNTNSEIKNLINEKVFKLSVKDIVNLSNEFYRFLQNRGRL”, the “soluble on expression in E. coli” value is “soluble”.

As to “MGSSHHHHHHSSGLVPRGSHMISNKLANIPDSYFGKTMGRKIEHGPLPLINMAVGIPDGPTPQGIIDHFQKALTIPENQKYGAFHGKEAFKQAIVDFYQRQYNVTLDKEDEVCILYGTKNGLVAVPTCVINPGDYVLLPDPGYTDYLAGVLLADGKPVPLNLEPPHYLPDWSKVDSQIIDKTKLIYLTYPNNPTGSTATKEVFDEAIAKFKGTDTKIVHDFAYGAFGFDAKNPSILASENGKDVAIEIYSLSKGYNMSGFRVGFAVGNKDMIQALKKYQTHTNAGMFGALQDAAIYALNHYDDFLEEQSNVFKTRRDRFEAMLAKADLPFVHAKGGIYVWLETPPGYDSEQFEQFLVQEKSILVAPGKPFGENGNRYVRISLALDDQKLDEAAIRLTELAYLYE”, the “soluble on expression in E. coli” value is on record as “soluble”.

In the case of “MGSSHHHHHHSSGLVPRGSHMLEDPMEQPINVLNDFHPLNEAGKILIKHPSLAERKDEDGIHWIKSQWDGKWYPEKFSDYLRLHKIVKIPNNSDKPELFQTYKDKNNKRSRYMGLPNLKRANIKTQWTREMVEEWKKCRDDIVYFAETYCAITHIDYGVIKVQLRDYQRDMLKIMSSKRMTVCNLSRQLGKTTVVAIFLAHFVCFNKDKAVGILAHKGSMSAEVLDRTKQAIELLPDFLQPGIVEWNKGSIELDNGSSIGAYASSPDAVRGNSFAMIYIEDCAFIPNFHDSWLAIQPVISSGRRSKIIITTTPNGLNHFYDIWTAAVEGKSGFEPYTAIWNSVKERLYNDEDIFDDGWQWSIQTINGSSLAQFRQEHTAAFEGTSGTLISGMKLAVMDFIEVTPDDHGFHQFKKPEPDRKYIATLDCSEGRGQDYHALHIIDVTDDVWEQVGVLHSNTISHLILPDIVMRYLVEYNECPVYIELNSTGVSVAKSLYMDLEYEGVICDSYTDLGMKQTKRTKAVGCSTLKDLIEKDKLIIHHRATIQEFRTFSEKGVSWAAEEGYHDDLVMSLVIFGWLSTQSKFIDYADKDD”, the “soluble on expression in E. coli” value was “soluble”.

In the case of “MGSSHHHHHHSSGLVPRGSHMVNKRMSMVVSGLTPEEFMLVYKFARKHHITLTNLITEETTHVVMKTDAEFVCERTLKYFLGIAGGKWVVSYFWVTQSIKERKMLNEHDFEVRGDVVNGRNHQGPKRARESQDRKIFRGLEICCYGPFTNMPTDQLEWMVQLCGASVVKELSSFTLGTGVHPIVVVQPDAWTEDNGFHAIGQMCEAPVVTREWVLDSVALYQCQELDTYLIPQIP”, the “soluble on expression in E. coli” value is “soluble”.

For “MGSSHHHHHHSSGLVPRGSHQPALAAEPAQLRIGYQKAVSSLVLAKQHRLLEQRFPRTKITWVEFPAGPQLLEALNVGSIDLGGAGDIPPLFAQAAGADLLYVGWVPPTPKAETILVPSKSALRTVADLKGKRIAFQKGSSAHNLLLRVLAKSGLSMRDITPLYLSPANARAAFAAGQVDAWAIWDPWYSALTLDGSARLLANGEGLGLTGGFFLSSRRYATAWGPFVQQVMGTLNQADGLLERDRAGSIKTLAQVSGLPPAVVERTLAHRPPASVQPLSAQVIKAQQATADLFYAQRLLPKRVLVAPAVWRAPDAGTAQAVSK”, the “soluble on expression in E. coli” value is listed as “soluble”.

As to “MGSSHHHHHHSSGLVPRGSSGHVGLRNLGNTCFLNAVLQCLSSTRPLRDFCLRRDFRQEVPGGGRAQELTEAFADVIGALWHPDSCEAVNPTRFRAVFQKYVPSFSGYSQQDAQEFLKLLMERLHLEINRRGRRAPPILANGPVPSPPRRGGALLEEPELSDDDRANLMWKRYLEREDSKIVDLFVGQLKSCLKCQACGYRSTTFEVFCDLSLPIPKKGFAGGKVSLRDCFNLFTKEEELESENAPVCDRCRQKTRSTKKLTVQRFPRILVLHLNRFSASRGSIKKSSVGVDFPLQRLSLGDFASDKAGSPVYQLYALCNHSGSVHYGHYTALCRCQTGWHVYNDSRVSPVSENQVASSEGYVLFYQLMQEPP”, the “soluble on expression in E. coli” value is listed as “soluble”.

For “MGSSHHHHHHSSGRENLYFQGHMSNTYQKRKASKEYGLYNQCKKLNDDELFRLLDDHNSLKRISSARVLQLRGGQDAVRLAIEFCSDKNYIRRDIGAFILGQIKICKKCEDNVFNILNNMALNDKSACVRATAIESTAQRCKKNPIYSPKIVEQSQITAFDKSTNVRRATAFAISVINDKATIPLLINLLKDPNGDVRNWAAFAININKYDNSDIRDCFVEMLQDKNEEVRIEAIIGLSYRKDKRVLSVLCDELKKNTVYDDIIEAAGELGDKTLLPVLDTMLYKFDDNEIITSAIDKLKRS”, the “soluble on expression in E. coli” value was “soluble”.

Consider “MGSTSTPDSSTNRLQDKVAIITGGAGGIGETTAKLFVRYGAKVVIADIADDHGQKVCNNIGSPDVISFVHCDVTKDEDVRNLVDTTIAKHGKLDIMFGNVGVLSTTPYSILEAGNEDFKRVMDINVYGAFLVAKHAARVMIPAKKGSIVFTASISSFTAGEGVSHVYTATKHAVLGLTTSLCTELGEYGIRVNCVSPYIVASPLLTDVFGVDSSRVEELAHQAANLKGTLLRAEDVADAVAYLAGDESKYVSGLNLVIDGGYTRTNPAFPTALKHGLA”, for which the “soluble on expression in E. coli” value was “soluble”.

The values are drawn from the DeepSol protein solubility set.
